# In patent publication US20220401476A1:
# Assays:
# [1] = molecular target: CD19 surface antigen on Raji lymphoma target-cells (#CCL-86, ATCC) (UniProt P15391); assay: cell-based or functional assay
# [2] = molecular target: rhIL-18 (IL-18, #9124-IL-010, R&D Systems) (human) (UniProt Q14116); assay: cell-based or functional assay
# Sequence of UniProt Q14116 (Q14116 37-193 limits assumed): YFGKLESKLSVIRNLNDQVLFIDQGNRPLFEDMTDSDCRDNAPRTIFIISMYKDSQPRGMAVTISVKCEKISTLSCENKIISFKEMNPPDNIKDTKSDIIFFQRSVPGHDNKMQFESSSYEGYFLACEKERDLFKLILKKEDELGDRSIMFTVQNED
# Sequence of UniProt P15391 (P15391 20-556 limits assumed): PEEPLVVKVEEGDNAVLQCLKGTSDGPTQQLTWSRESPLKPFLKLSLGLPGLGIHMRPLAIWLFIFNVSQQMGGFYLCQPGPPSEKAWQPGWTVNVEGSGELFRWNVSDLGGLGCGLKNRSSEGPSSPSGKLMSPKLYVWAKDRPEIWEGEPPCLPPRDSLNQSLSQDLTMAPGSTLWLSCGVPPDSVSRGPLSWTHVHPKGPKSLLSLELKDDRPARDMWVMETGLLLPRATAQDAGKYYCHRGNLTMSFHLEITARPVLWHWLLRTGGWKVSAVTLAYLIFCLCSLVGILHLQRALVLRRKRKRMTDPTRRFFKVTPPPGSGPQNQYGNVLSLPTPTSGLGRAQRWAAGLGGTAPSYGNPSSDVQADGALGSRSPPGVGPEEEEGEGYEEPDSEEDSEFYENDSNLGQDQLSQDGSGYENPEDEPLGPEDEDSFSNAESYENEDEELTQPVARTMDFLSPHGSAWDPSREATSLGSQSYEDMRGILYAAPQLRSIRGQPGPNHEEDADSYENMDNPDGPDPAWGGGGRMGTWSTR
Substance,"Mean concentration (pg/mL) of IFN-γ in culture medium, Tumor + CAR-T, day 1 [1] [pg/mL]","Mean cumulative concentration (pg/mL) of IFN-γ in culture medium, Tumor + CAR-T, day 2 [1] [pg/mL]","Mean cumulative concentration (pg/mL) of IFN-γ in culture medium, Tumor + CAR-T, day 3 [1] [pg/mL]","IL-18BP-mediated inhibition (%) of IFN-γ in Tumor + CAR-T + IL-18 + IL-12 culture, day 1 [2] [%]","IL-18BP-mediated inhibition (%) of IFN-γ in Tumor + CAR-T + IL-18 + IL-12 culture, day 2 [2] [%]","IL-18BP-mediated inhibition (%) of IFN-γ in Tumor + CAR-T + IL-18 + IL-12 culture, day 3 [2] [%]","IL-18BP-mediated inhibition (%) of IFN-γ in Tumor + CAR-T + IL-18 culture, day 1 [2] [%]","IL-18BP-mediated inhibition (%) of IFN-γ in Tumor + CAR-T + IL-18 culture, day 2 [2] [%]","IL-18BP-mediated inhibition (%) of IFN-γ in Tumor + CAR-T + IL-18 culture, day 3 [2] [%]","reduction of IFN-γ production boosted by rhIL-12 and rhIL-18, average over three days [2] [%]"
"CD19-specific CAR of CD19SCFV-CD28-4-1BB-CD3 CAR-T-cells (#PM-CAR1003-10M, ProMAB)",6910,21500,32700,–,–,–,–,–,–,–
"recombinant human IL-18BP (rhIL-18BP, Tadekinig alfa)",–,–,–,82,79,75,100,92,79,80
